# Laboratory results: patent publication US20200216495A1 (ADRX, published 2020)
# “And” between values parts separate entries of the source, which are not always exact repeats. Equal values may be shown once. Square brackets hold non-standard residues; d marks the D form. Ends that are not written are not given here. dMet(O) = CS(=O)CC[C@@H](N)C(=O)O
# Molecular target: Tau40 P301L protein (human)
# Test: cell-based or functional assay
row,"IC50, Tau40 assay (ThT)",Binder
1,1640 nM,[dL][dK][dI][dQ][dI][dH][dY] [lkiqihy (PEPTIDE ID NO: 285)]
2,1610 nM,[dR][dL][dR][dI][dR][dW] [rlrirw (PEPTIDE ID NO: 27)]
3,1890 nM and 910 nM,[dF][dK][dI][dR][dI][dH][dH][dY] [fkirihhy (PEPTIDE ID NO: 122)]
4,1770 nM and 2530 nM,[dW][dF][dK][dI][dK][dL][dE][dL] [wfkiklel (PEPTIDE ID NO: 110)]
5,720 nM,[dL][dW][dR][dL][dK][dV][dR][dW] [lwrlkvrw (PEPTIDE ID NO: 202)]
6,1630 nM,[dT][dK][dI][dR][dI][dH][dY] [tkirihy (PEPTIDE ID NO: 283)]
7,1770 nM,[dF][dR][dL][dK][dL][dR][dF][dH] [frlklrfh (PEPTIDE ID NO: 426)]
8,1990 nM,[dL][dK][dI][dF][dI][dY][dY][dH] [lkifiyyh (PEPTIDE ID NO: 302)]
9,2020 nM,[dR][dI][dR][dW][dR][dW] [rirwrw (PEPTIDE ID NO: 50)]
10,1680 nM,[dR][dR][dL][dK][dV][dR][dW][dR] [rrlkvrwr (PEPTIDE ID NO: 439)]
11,1610 nM and 750 nM,[dW][dR][dL][dK][dV][dR][dW][dW] [wrlkvrww (PEPTIDE ID NO: 3)]
12,1870 nM and 1910 nM and 870 nM,[dF][dR][dL][dK][dV][dR][dW][dF] [frlkvrwf (PEPTIDE ID NO: 4)]
13,700 nM,[dL][dK][dV][dR][dW][dW][dW][dR] [lkvrwwwr (PEPTIDE ID NO: 199)]
14,1650 nM and 1830 nM,[dL][dH][dI][dK][dL][dR][dW][dH] [lhiklrwh (PEPTIDE ID NO: 151)]
15,1600 nM,[dW][dR][dL][dQ][dV][dR][dW] [wrlqvrw (PEPTIDE ID NO: 280)]
16,1650 nM and 1790 nM,[dF][dK][dI][dH][dI][dK][dH][dY] [fkihikhy (PEPTIDE ID NO: 127)]
17,2020 nM,[dW][dI][dK][dI][dW][dR] [wikiwr (PEPTIDE ID NO: 29)]
18,1820 nM,[dW][dR][dL][dH][dV][dR][dW][dW] [wrlhvrww (PEPTIDE ID NO: 292)]
19,1780 nM and 2430 nM,[dL][dR][dL][dR][dI][dK][dH][dF] [lrlrikhf (PEPTIDE ID NO: 150)]

# Continued, binder first:
row,Binder,"IC50, Tau40 assay (ThT)"
1,[dW][dK][dV][dK][dF][dQ][dH][dW] [wkvkfqhw (PEPTIDE ID NO: 94)],1690 nM
2,[dW][dR][dL][dE][dV][dR][dW][dW] [wrlevrww (PEPTIDE ID NO: 288)],1720 nM
3,[dW][dR][dL][dK][dV][dR][dW][dE] [wrlkvrwe (PEPTIDE ID NO: 275)],1520 nM
4,[dL][dK][dI][dW][dI][dH][dY][dH] [lkiwihyh (PEPTIDE ID NO: 299)],1910 nM
5,[dF][dK][dI][dK][dI][dK][dW] (not fully specified; printed as fkikikw) [fkikikw (PEPTIDE ID NO: 60)],1570 nM and 1650 nM
6,[dW][dR][dL][dK][dV][dN][dW] [wrlkvnw (PEPTIDE ID NO: 296)],1870 nM
7,[dW][dR][dL][dK][dV][dQ][dW] [wrlkvqw (PEPTIDE ID NO: 281)],1620 nM
8,[dH][dY][dH][dI][dR][dI][dK][dL] [hyhirikl (PEPTIDE ID NO: 300)],1940 nM
9,[dK][dI][dK][dI][dK][dW] [kikikw (PEPTIDE ID NO: 66)],1870 nM
10,[dW][dK][dV][dW][dV][dR][dY][dW] [wkvwvryw (PEPTIDE ID NO: 92)],700 nM and 810 nM
11,[dW][dR][dT][dK][dV][dR][dW] [wrtkvrw (PEPTIDE ID NO: 276)],1560 nM
12,[dW][dR][dL][dR][dL][dR][dW] [wrlrlrw (PEPTIDE ID NO: 200)],700 nM
13,[dL][dH][dI][dR][dL][dR][dH][dW] [lhirlrhw (PEPTIDE ID NO: 153)],1840 nM and 1880 nM
14,[dE][dI][dR][dL][dH][dW] [eirlhw (PEPTIDE ID NO: 74)],1540 nM
15,[dL][dK][dI][dR][dI][dMet(O)][dY] [lkirixy (PEPTIDE ID NO: 297)],1880 nM
16,[dW][dH][dL][dR][dI][dR][dW] [whlrirw (PEPTIDE ID NO: 19)],1540 nM and 1630 nM
17,[dF][dH][dI][dH][dI][dK][dF][dH] [fhihikfh (PEPTIDE ID NO: 437)],2020 nM
18,[dW][dK][dV][dN][dV][dR][dL][dW] [wkvnvrlw (PEPTIDE ID NO: 95)],1670 nM and 1710 nM
19,[dW][dK][dV][dK][dI][dQ][dY][dH] [wkvkiqyh (PEPTIDE ID NO: 100)],1560 nM and 1610 nM
20,[dF][dH][dI][dR][dL][dE][dW][dH] [fhirlewh (PEPTIDE ID NO: 139)],1860 nM and 2190 nM
21,[dL][dK][dI][dR][dI][dY][dY] [lkiriyy (PEPTIDE ID NO: 277)],1570 nM

row,Binder,"IC50, Tau40 assay (ThT)"
1,[dL][dK][dI][dR][dI][dH][dY][dR] [lkirihyr (PEPTIDE ID NO: 291)],1810 nM
2,[dW][dK][dV][dQ][dV][dR][dW] [wkvqvrw (PEPTIDE ID NO: 89)],1730 nM and 1760 nM
3,[dR][dL][dK][dV][dR][dW][dW] [rlkvrww (PEPTIDE ID NO: 298)],1900 nM
4,[dK][dL][dK][dL][dR][dW][dF] [klklrwf (PEPTIDE ID NO: 438)],1670 nM
5,[dL][dK][dI][dH][dI][dH][dY][dH] [lkihihyh (PEPTIDE ID NO: 295)],1850 nM
6,[dL][dR][dL][dH][dL][dR][dH][dW] [lrlhlrhw (PEPTIDE ID NO: 149)],1640 nM and 2060 nM
7,[dW][dR][dL][dR][dI][dW][dW] [wrlriww (PEPTIDE ID NO: 103)],1980 nM
8,[dW][dR][dV][dQ][dV][dR][dW] [wrvqvrw (PEPTIDE ID NO: 102)],1540 nM and 1570 nM
9,[dV][dR][dW][dW][dW][dR][dL][dK] [vrwwwrlk (PEPTIDE ID NO: 204)],740 nM
10,[dP][dR][dI][dR][dL][dH][dW] [prirlhw (PEPTIDE ID NO: 33)],1940 nM and 1950 nM
11,[dF][dK][dI][dK][dL][dK][dW] [fkiklkw (PEPTIDE ID NO: 35)],1740 nM and 1840 nM
12,[dW][dR][dL][dK][dV][dR][dR][dW] [wrlkvrrw (PEPTIDE ID NO: 278)],1580 nM
13,[dW][dR][dL][dK][dV][dR][dW] [wrlkvrw (PEPTIDE ID NO: 289)],1770 nM
14,[dW][dR][dL][dA][dV][dR][dW] [wrlavrw (PEPTIDE ID NO: 301)],1940 nM
15,[dW][dR][dL][dK][dV][dR][dE][dW] [wrlkvrew (PEPTIDE ID NO: 284)],1640 nM
16,[dR][dT][dL][dK][dI][dV][dW][dR] [rtlkivwr (PEPTIDE ID NO: 22)],1670 nM
17,[dW][dN][dL][dK][dV][dR][dW] [wnlkvrw (PEPTIDE ID NO: 294)],1820 nM
18,[dR][dR][dL][dR][dI][dH][dW] [rrlrihw (PEPTIDE ID NO: 290)],1790 nM
19,[dW][dR][dI][dR][dL][dR][dY][dW] [wrirlryw (PEPTIDE ID NO: 104)],1910 nM and 2450 nM
20,[dK][dV][dR][dW][dW][dL][dR][dW] [kvrwwlrw (PEPTIDE ID NO: 201)],710 nM
21,[dF][dK][dL][dH][dI][dR][dH][dW] [fklhirhw (PEPTIDE ID NO: 128)],1710 nM and 1760 nM
